T1: recombinant Nogo-A fragment NI-Fr2 (rat, UniProt Q9JK11 233-941, labelled with digoxigenin (molar ratio 5:1) in the colony screening assay)
T1 construct: Truncated rat Nogo-A with C-terminal Strep-tag, made in the E. coli periplasm; also called MI-Fr2; wild-type NI-Fr2
T1 sequence: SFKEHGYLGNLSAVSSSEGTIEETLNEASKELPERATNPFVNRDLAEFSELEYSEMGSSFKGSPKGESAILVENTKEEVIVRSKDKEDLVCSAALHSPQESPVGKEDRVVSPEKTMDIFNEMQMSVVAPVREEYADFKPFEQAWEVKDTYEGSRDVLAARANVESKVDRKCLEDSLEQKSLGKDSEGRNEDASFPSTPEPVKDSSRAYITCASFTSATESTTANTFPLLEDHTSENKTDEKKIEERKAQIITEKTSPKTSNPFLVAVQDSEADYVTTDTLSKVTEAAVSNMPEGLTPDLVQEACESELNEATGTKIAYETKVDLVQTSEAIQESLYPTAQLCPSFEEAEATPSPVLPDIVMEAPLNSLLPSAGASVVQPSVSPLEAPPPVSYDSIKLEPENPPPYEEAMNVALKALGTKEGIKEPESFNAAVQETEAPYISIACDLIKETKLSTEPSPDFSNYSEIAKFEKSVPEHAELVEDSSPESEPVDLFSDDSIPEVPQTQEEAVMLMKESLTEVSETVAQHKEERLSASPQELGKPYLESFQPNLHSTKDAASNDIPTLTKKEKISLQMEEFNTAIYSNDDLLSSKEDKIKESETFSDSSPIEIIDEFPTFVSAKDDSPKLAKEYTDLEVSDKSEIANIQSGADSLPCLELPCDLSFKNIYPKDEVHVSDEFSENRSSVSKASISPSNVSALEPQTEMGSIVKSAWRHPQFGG


The binders below were run against T1, recombinant Nogo-A fragment NI-Fr2 (assay: filter-sandwich colony screening assay; Fab-ABD (pASK106) captured on HSA membrane, digoxigenin-labelled NI-Fr2).
Description: The mutagenized gene fragment was recloned on the expression vector pASK106-IN1 (encoding a Fab fragment fused with an albumin-binding domain to the C-terminus of its light chain; König and Skerra, supra). E. coli JM83 was transformed with the ligation mixture and transformed cells harboring the pASK106 vector were plated on a hydrophilic membrane (GVWP, 0.22 μm; Millipore, Bedford, Mass.), placed on a petri dish with LB/Amp agar, such that approximately 500 colonies were obtained, and incubated at 37° C. for 8 to 9 h. In the meantime a hydrophobic membrane (Immobilon-P, 0.45 μm; Millipore) was coated with 10 mg/ml human serum albumin (HSA; Sigma, Deisenhofen, Germany) in PBS for four hours and blocked with 3% (w/v) BSA (Roth, Karlsruhe, Germany), 0.5% (v/v) Tween 20 in PBS. The membrane was washed twice with PBS, soaked in LB/Amp containing […], and placed on an LB/Amp agar plate supplemented with […]. The first membrane, carrying tiny colonies of the transformed cells, was then placed onto the second (hydrophobic) membrane. The filter sandwich was incubated for 16 h at 22° C. During this period the mutated IN-1 Fab fragments became secreted—and partially released from the colonies by leakage from the bacterial periplasm—and finally immobilized on the lower membrane via complex formation between HSA and ABD.
The first membrane with the still viable colonies was transferred to a fresh LB/Amp agar plate and stored at 4° C. The second membrane was washed three times in PBS containing 0.1% (v/v) Tween 20 (PBS/T) and the immobilized Fab fragments, each in a spot 30 corresponding to the position of the original colony, were probed for antigen binding. To this end recombinant Nogo-A fragment NI-FR2 was labeled at a molar ratio of 5:1 with digoxigenin-3-O-methylcarbonyl-e-aminocaproic acid N-hydroxy-succinimide ester (Roche Diagnostics, Mannheim, Germany) and applied to the membrane for one hour at a concentration of 30 or 50 μg/ml in PBS/T. After washing three times with PBS/T the membrane was incubated for one hour with 0.75 u/ml anti-digoxigenin Fab fragment conjugated with alkaline phosphatase (Roche Diagnostics) in 10 ml PBS/T. The membrane was finally washed twice with PBS/T and twice with PBS and the signals were developed using standard chromogenic substrates as described (Schlehuber et al., supra).

Row | binding result | Binder
1 | binds | I.1.6 Fab fragment (IN-1 mutant) (Fab, V domains shown, Chimeric Fab, human IgG1/kappa constant domains) VH: EVKLHESGPGLVRPGTSVKISCKASGYTFTNYWLGWVKQRPGHGLEWIGDIYPGGGYTNYNEKFKGKATLTADTSSSTAYMQLSSLTSEDSAVYFCARFYYGSSYWYFDVWGQGTTVTVSS VL: DIELTQSPAIMAASVGETVTITCGASENIYGALNWYQRKQGKSPQLLIYGATNLADGMSSRFSGSGSGRQYSLKISSLHPDDVATYYCQNVLNLPCTFGAGTKLEIK
2 | binds | I.2.5 Fab fragment (IN-1 mutant) (Fab, V domains shown, Chimeric Fab, human IgG1/kappa constant domains) VH: EVKLHESGPGLVRPGTSVKISCKASGYTFTNYWLGWVKQRPGHGLEWIGDIYPGGGYTNYNEKFKGKATLTADTSSSTAYMQLSSLTSEDSAVYFCARFYYGSSYWYFDVWGQGTTVTVSS VL: DIELTQSPAIMAASVGETVTITCGASENIYGALNWYQRKQGKSPQLLIYGATNLADGMSSRFSGSGSGRQYSLKISSLHPDDVATYYCQNVLPCPVTFGAGTKLEIK
3 | binds | I.1.11 Fab fragment (IN-1 mutant) (Fab, V domains shown, Chimeric Fab, human IgG1/kappa constant domains) VH: EVKLHESGPGLVRPGTSVKISCKASGYTFTNYWLGWVKQRPGHGLEWIGDIYPGGGYTNYNEKFKGKATLTADTSSSTAYMQLSSLTSEDSAVYFCARFYYGSSYWYFDVWGQGTTVTVSS VL: DIELTQSPAIMAASVGETVTITCGASENIYGALNWYQRKQGKSPQLLIYGATNLADGMSSRFSGSGSGRQYSLKISSLHPDDVATYYCQNVLYTPCTFGAGTKLEIK
4 | binds | I.4.4 Fab fragment (IN-1 mutant) (Fab, V domains shown, Chimeric Fab, human IgG1/kappa constant domains) VH: EVKLHESGPGLVRPGTSVKISCKASGYTFTNYWLGWVKQRPGHGLEWIGDIYPGGGYTNYNEKFKGKATLTADTSSSTAYMQLSSLTSEDSAVYFCARFYYGSSYWYFDVWGQGTTVTVSS VL: DIELTQSPAIMAASVGETVTITCGASENIYGALNWYQRKQGKSPQLLIYGATNLADGMSSRFSGSGSGRQYSLKISSLHPDDVATYYCQNVLDRPLTFGAGTKLEIK
5 | binds | I.2.4 Fab fragment (IN-1 mutant) (Fab, V domains shown, Chimeric Fab, human IgG1/kappa constant domains) VH: EVKLHESGPGLVRPGTSVKISCKASGYTFTNYWLGWVKQRPGHGLEWIGDIYPGGGYTNYNEKFKGKATLTADTSSSTAYMQLSSLTSEDSAVYFCARFYYGSSYWYFDVWGQGTTVTVSS VL: DIELTQSPAIMAASVGETVTITCGASENIYGALNWYQRKQGKSPQLLIYGATNLADGMSSRFSGSGSGRQYSLKISSLHPDDVATYYCQNVLGTPFTFGAGTKLEIK

The binders below were run against T1, recombinant Nogo-A fragment NI-Fr2 (assay: ELISA; NI-Fr2 coated).
Description: ELISA was carried out in a 96 well microtitre plate (Becton Dickinson, Heidelberg, Germany) at ambient temperature with incubation steps of 1 h unless otherwise stated. Three washing steps with PBS/T were used after each incubation, and residual liquid was removed thoroughly. The wells were coated for 4 h with 50 μl of a solution of MI-Fr2 at concentrations between 180 and 200 μg/ml in PBS buffer and then blocked with 200 μl 3% (w/v) BSA, 0.5% (v/v) Tween 20 in PBS. After washing, 50 μl of the purified recombinant Fab fragment was applied at a dilution series in PBS/T. The wells were then incubated with 50 μl anti-human Cκ antibody conjugated with alkaline phosphatase (Sigma), diluted 1:1000 in PBS/T. Signals were finally developed in the presence of p-nitrophenyl phosphate (Voss and Skerra, (1997) Protein Eng., 10, 975-982). Enzymatic activity was measured at 25° C. as the change in absorbance at 405 nm per min with a SpectraMAX 250 instrument (Molecular Devices, Sunnyvale, Calif.). The data were corrected for background values determined in wells that were merely coated with BSA and fitted by non-linear least squares regression as described by Voss and Skerra, supra
Unfortunately, the I.2.6 mutant of the IN-1 Fab fragment was produced as a soluble protein in E. coli at a much lower level, with a relative yield of 5% after purification (0.04 mg L⁻¹ OD⁻¹ vs. 0.8 mg L⁻¹ OD⁻¹ for the wild-type IN-1 Fab fragment). […] Following earlier substitution experiments concerning position L96 (cf. above) attempts were made to replace the Cys residue in the I.2.6 mutant by small apolar side chains such as those of Ala, Val, Met, Leu, and Ile. The substitutions were introduced by site-directed mutagenesis and all corresponding recombinant Fab fragments were produced and purified as before, resulting in yields that were similar again to the wild type IN-1 Fab fragment.

Row | binding result | Binder
6 | no binding | I.2.6 Fab fragment with Cys L96 replaced by Met (Fab, V domains shown, Chimeric Fab, human IgG1/kappa constant domains) VH: EVKLHESGPGLVRPGTSVKISCKASGYTFTNYWLGWVKQRPGHGLEWIGDIYPGGGYTNYNEKFKGKATLTADTSSSTAYMQLSSLTSEDSAVYFCARFYYGSSYWYFDVWGQGTTVTVSS VL: DIELTQSPAIMAASVGETVTITCGASENIYGALNWYQRKQGKSPQLLIYGATNLADGMSSRFSGSGSGRQYSLKISSLHPDDVATYYCQNVLRVPMTFGAGTKLEIK
7 | no binding | I.2.6 Fab fragment with Cys L96 replaced by Leu (Fab, V domains shown, Chimeric Fab, human IgG1/kappa constant domains) VH: EVKLHESGPGLVRPGTSVKISCKASGYTFTNYWLGWVKQRPGHGLEWIGDIYPGGGYTNYNEKFKGKATLTADTSSSTAYMQLSSLTSEDSAVYFCARFYYGSSYWYFDVWGQGTTVTVSS VL: DIELTQSPAIMAASVGETVTITCGASENIYGALNWYQRKQGKSPQLLIYGATNLADGMSSRFSGSGSGRQYSLKISSLHPDDVATYYCQNVLRVPLTFGAGTKLEIK
8 | no binding | I.2.6 Fab fragment with Cys L96 replaced by Ile (Fab, V domains shown, Chimeric Fab, human IgG1/kappa constant domains) VH: EVKLHESGPGLVRPGTSVKISCKASGYTFTNYWLGWVKQRPGHGLEWIGDIYPGGGYTNYNEKFKGKATLTADTSSSTAYMQLSSLTSEDSAVYFCARFYYGSSYWYFDVWGQGTTVTVSS VL: DIELTQSPAIMAASVGETVTITCGASENIYGALNWYQRKQGKSPQLLIYGATNLADGMSSRFSGSGSGRQYSLKISSLHPDDVATYYCQNVLRVPITFGAGTKLEIK
9 | no binding | I.2.6 Fab fragment with Cys L96 replaced by Ala (Fab, V domains shown, Chimeric Fab, human IgG1/kappa constant domains) VH: EVKLHESGPGLVRPGTSVKISCKASGYTFTNYWLGWVKQRPGHGLEWIGDIYPGGGYTNYNEKFKGKATLTADTSSSTAYMQLSSLTSEDSAVYFCARFYYGSSYWYFDVWGQGTTVTVSS VL: DIELTQSPAIMAASVGETVTITCGASENIYGALNWYQRKQGKSPQLLIYGATNLADGMSSRFSGSGSGRQYSLKISSLHPDDVATYYCQNVLRVPATFGAGTKLEIK

Reference: patent US20060287501A1 (Pieris, published 2006)
